# Reference: the supplement of paper PMC10567573
# B1: GAGE1 (parent)
# chain: RPRRYVQPPEMIGPMRPEQFSDEV
# Variants of: B1
# Experiment: protein stability index of a GFP-peptide fusion (GPS, HEK-293T) (PSI 1-6); higher = more stable
# Details: c terminus: a fixed tail appended
# 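Further: lentivirally expressed fusions sorted by FACS into six bins by GFP to DsRed ratio, PSI derived from sequencing read proportions per bin multiplied by bin number.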
row,Variant,protein stability index
1,RPRRYVQPPEMIGPWRPEQFSDEV,3.49
2,RPRRYVQPPEMIGPHRPEQFSDEV,3.69
3,RPRRYVQPPEMIGPIRPEQFSDEV,4.12
4,RPRRYVQPPEMIGPQRPEQFSDEV,4.58
5,RPRRYVQPPEMIGPNRPEQFSDEV,3.97
6,RPRRYVQPPEMIGPRRPEQFSDEV,4.17
7,RPRRYVQPPEMIGPGRPEQFSDEV,4.7
8,RPRRYVQPPEMIGPMRPEQMSDEV,4.08
9,RPRRYVQPPEMIGPMRPEQLSDEV,4.5
10,RPRRYVQPPEMIGPMRPEQPSDEV,4.72
11,RPRRYVQPPEMIGPMRPEQGSDEV,4.85
12,RPRRYVQPPEMIGPMRPEQRSDEV,4.64
13,RPRRYVQPPEMIGPMRPEQYSDEV,3.82
14,RPRRYVQPPEMIGPMRPEQVSDEV,4.71
15,RPRRYVQPPEMIGPMRPEQCSDEV,4.64
16,RPRRYVQPPEMIGPMRPEQDSDEV,4.91
17,RPRRYVQPPEFIGPMRPEQFSDEV,4.05
18,RPRRYVQPPEVIGPMRPEQFSDEV,3.46
19,RPRRYVQPPEIIGPMRPEQFSDEV,3.38
20,RPRRYVQPPEEIGPMRPEQFSDEV,3.88
21,RPRRYVQPPEAIGPMRPEQFSDEV,4.34
22,RPRRYVQPPEWIGPMRPEQFSDEV,3.91
23,RPRRYVQPPEDIGPMRPEQFSDEV,3.53
24,RPRRYVQPPEHIGPMRPEQFSDEV,4.37

row,Variant,protein stability index
1,RPRRYVQPPEPIGPMRPEQFSDEV,4.53
2,RPRRYVQPPECIGPMRPEQFSDEV,3.56
3,RPRRYVQPPEGIGPMRPEQFSDEV,4.44
4,RPRRYCQPPEMIGPMRPEQFSDEV,3.63
5,RPRRYEQPPEMIGPMRPEQFSDEV,3.92
6,RPRRYFQPPEMIGPMRPEQFSDEV,3.39
7,RPRRYGQPPEMIGPMRPEQFSDEV,4.18
8,RPRRYLQPPEMIGPMRPEQFSDEV,3.69
9,RPRRYAQPPEMIGPMRPEQFSDEV,3.3
10,RPRRYTQPPEMIGPMRPEQFSDEV,3.66
11,RPRRYYQPPEMIGPMRPEQFSDEV,3.01
12,RPMRYVQPPEMIGPMRPEQFSDEV,3.89
13,RPSRYVQPPEMIGPMRPEQFSDEV,4.26
14,RPDRYVQPPEMIGPMRPEQFSDEV,4.28
15,RPKRYVQPPEMIGPMRPEQFSDEV,4.02
16,RPTRYVQPPEMIGPMRPEQFSDEV,4.3
17,RPFRYVQPPEMIGPMRPEQFSDEV,2.21
18,RPNRYVQPPEMIGPMRPEQFSDEV,4.07
19,RPRRYVQPPEMIGPMRPEQFSDEP,4.06
20,RPRRYVQPPEMIGPMRPEQFSDEY,3.94
21,RPRRYVQPPEMIGPMRPEQFSDEL,3.74
22,RPRRYVQPPEMIGPMRPEQFSDEA,4.52
23,RPRRYVQPPEMIGPMRPEQFSDEK,4.5
24,SPRRYVQPPEMIGPMRPEQFSDEV,3.73

row,Variant,protein stability index
1,YPRRYVQPPEMIGPMRPEQFSDEV,3.29
2,CPRRYVQPPEMIGPMRPEQFSDEV,4.07
3,WPRRYVQPPEMIGPMRPEQFSDEV,2.74
4,NPRRYVQPPEMIGPMRPEQFSDEV,3.93
5,IPRRYVQPPEMIGPMRPEQFSDEV,3.7
6,LPRRYVQPPEMIGPMRPEQFSDEV,3.96
7,KPRRYVQPPEMIGPMRPEQFSDEV,3.96
8,QPRRYVQPPEMIGPMRPEQFSDEV,4.23
9,EPRRYVQPPEMIGPMRPEQFSDEV,4.23
10,FPRRYVQPPEMIGPMRPEQFSDEV,3.24
11,VPRRYVQPPEMIGPMRPEQFSDEV,3.59
12,RPRRYVQPPEMIGPMRPEQFSHEV,3.29
13,RPRRYVQPPEMIGPMRPEQFSREV,3.5
14,RPRRYVQPPEMIGPMRPEQFSYEV,2.77
15,RPRRYVQPPEMIGPMRPEQFSWEV,2.53
16,RPRRYVQPPEMIGPMRPEQFSAEV,3.87
17,RPRRYVQPPEMIGPMRPEQFSLEV,2.6
18,RPRRYVQPPEMIGPMRPEQFSQEV,3.11
19,RPRRYVQPPEMIGPMRPEQFSSEV,3.95
20,RPRRYVQPHEMIGPMRPEQFSDEV,3.82
21,RPRRYVQPQEMIGPMRPEQFSDEV,4.52
22,RPRRYVQPREMIGPMRPEQFSDEV,4.36
23,RPRRYVQPIEMIGPMRPEQFSDEV,3.57
24,RPRRYVQPGEMIGPMRPEQFSDEV,4.46

row,Variant,protein stability index
1,RPRRYVQPTEMIGPMRPEQFSDEV,4.28
2,RPRRYVQPYEMIGPMRPEQFSDEV,3.62
3,RPRRYVQPNEMIGPMRPEQFSDEV,3.97
4,RPRRYVQPPEMIRPMRPEQFSDEV,4.19
5,RPRRYVQPPEMISPMRPEQFSDEV,4.09
6,RPRRYVQPPEMITPMRPEQFSDEV,4.33
7,RPRRYVQPPEMIFPMRPEQFSDEV,3.8
8,RPRRYVQPPEMIWPMRPEQFSDEV,3.56
9,RPRRYVQPPEMIYPMRPEQFSDEV,3.85
10,RLRRYVQPPEMIGPMRPEQFSDEV,2.99
11,RNRRYVQPPEMIGPMRPEQFSDEV,3.51
12,RARRYVQPPEMIGPMRPEQFSDEV,3.59
13,RIRRYVQPPEMIGPMRPEQFSDEV,2.5
14,RDRRYVQPPEMIGPMRPEQFSDEV,3.98
15,RQRRYVQPPEMIGPMRPEQFSDEV,3.45
16,RERRYVQPPEMIGPMRPEQFSDEV,4.12
17,RRRRYVQPPEMIGPMRPEQFSDEV,4.1
18,RPRFYVQPPEMIGPMRPEQFSDEV,3.88
19,RPRLYVQPPEMIGPMRPEQFSDEV,4.04
20,RPRPYVQPPEMIGPMRPEQFSDEV,4.11
21,RPRNYVQPPEMIGPMRPEQFSDEV,3.72
22,RPRSYVQPPEMIGPMRPEQFSDEV,4.05
